The values that follow are results of earlier work, collected in paper PMC11949069.

The target in this data set is IL-18BPa (Homo sapiens) (UniProt O95998).
Sequence of IL-18BPa (Homo sapiens) (O95998 31-194): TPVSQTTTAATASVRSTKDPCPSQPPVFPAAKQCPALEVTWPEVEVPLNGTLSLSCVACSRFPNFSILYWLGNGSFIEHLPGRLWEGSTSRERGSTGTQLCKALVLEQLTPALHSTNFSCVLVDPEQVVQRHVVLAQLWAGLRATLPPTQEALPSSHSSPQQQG

Sequence of IL-18 (Q14116 37-193): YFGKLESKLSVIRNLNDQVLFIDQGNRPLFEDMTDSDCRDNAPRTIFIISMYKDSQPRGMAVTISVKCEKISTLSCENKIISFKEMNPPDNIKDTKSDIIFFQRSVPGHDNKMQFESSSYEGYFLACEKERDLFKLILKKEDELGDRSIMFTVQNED

As to IL-18 (from UniProt Q14116), the Kd was 0.4 nM.
